Reference: patent US20150010566A1 (AIMM THERAPEUTICS B V, published 2015)

B1: AT10-001 (antibody, V domains shown)
VH: EVQLLESGGGLVQPGGSLRLSCAASGFSFSTYAMSWVRQAPGKGLEWVSGISGSGESTYYADSVKGRFTVSRDNSKNTLYLQMNSLRAEDTAVYYCAKQGDHIAWLLRGINFDYWGQGVLVTVSS
VL: EIVLTQSPGTLSLSPGERATLSCRASQSVSSSYLAWYQQKPGQAPRLLIYGASTRATGIPDRFSGRGSGTDFTLTISSLEPEDFAVYYCQNYGSPFLFTFGPGTKVDIKR
B2: AT10-002 (antibody, V domains shown)
VH: QLQLQESGPRLVKPSETLSLTCSVSGVSISSSNYYWGWIRQPPGKGLEWIGTIYHSGSTYYNPSLKSRLIISVDTSKNQFYLQLTSLTAADSAVYYCATGGGFGWSQTYFGYWGQGTLVTASS
VL: QSALTQPASVSGSPGQSITISCTGTSSDVGAYNYVSWYQHHPGKAPKLMIYDVTYRPSGVSTRFSGSKSGNTASLTISGLQAEDEADYYCSSQSRSSTLVIFGGGTKLTVLG
B3: AT10-005 (antibody, V domains shown)
VH: QVQLVQSGAEVKKPGSSVKVSCKASGGAFSNYAISWVRQAPGQGLEWMGGIIPIFGTTNYAQKFQGRVTITADKFTTIAYMELRSLRSEDTAVYYCARHGGVYYYGSASSGWFDPWGQGTLVTVSS
VL: EIVLTQSPGTLSLSPGERATLSCRASQSVSSSYLAWYQQKPGQAPRLLIFGASTRATGIPDRFSGSGSGTDFTLTISRLEPEDFAVFYCQQYGSLPLTFGGGTKVEIKG
B4: AT10-003 (antibody, V domains shown)
VH: QVHLVQSGAEVRKPGASVKVSCKVSGYTLNELSIHWLRQAPGRGLEWMGSFDPEDGETIYAQKFQGRVTMTGDTSTDTAYLELTSLRSEDTALYYCARGWGAVTSPFDFWGQGTLVTVSS
VL: DIVMTQSPLSLPVTPGEPASISCRSSQSLLHSNGHIYFDWYLQKPGQSPQLLIYLVSKRASGVPDRFSGSGSGTDFTLKISRVEAEDVGVYYCMQALETPFTFGPGTKVHIKR
B5: AT10-004 (antibody, V domains shown)
VH: QVQLVQSGAEVRKPGASVKVSCKASGYTFTRHGISWVRQAPGQGLEWMGWISAYTGDTDYAQKFQGRVTMTTDTSTNTAYMELRSLRSDDAAVYYCARLRLQGEVVVPPSQSNWFDPWGQGTLVTVSS
VL: EIVLTQSPATLSLYPGERATLSCRASQSVSRYLAWYQQKPGQAPRLLIYDASNRATGIPARFSGSGSGTDFTLTISSLEPEDFAVYYCQQRSNWLKITFGQGTRLEIKG

Target: HA of H5N1 A/turkey/Turkey/05 virus (Influenza A virus H5N1 …)
Test: cell-based or functional assay

Row | Binder | IC50, in vitro virus neutralization on MDCK cells [µg/mL]
1 | B1 | > 15
2 | B2 | > 15
3 | B3 | 1.3
4 | B4 | > 15

Target: HA of H3N2 HKX-31 virus (Influenza A virus H3N2 HKX-31)
Test: cell-based or functional assay

Row | Binder | IC50, in vitro virus neutralization on MDCK-SIAT cells [µg/mL]
5 | B1 | 2.1
6 | B2 | 0.25
7 | B4 | > 15

Target: HA of Influenza H1N1 (A/Hawaii/31/2007), on infected MDCK-SIAT cells or on virus (Influenza A virus H1N1 A/Hawaii/31/2007)
Test: cell-based or functional assay

Row | Binder | IC50, in vitro virus neutralization on MDCK-SIAT cells [µg/mL]
8 | B1 | > 15

Target: T1, recombinant HA of full length H3 (A/Aichi/2/1968, full length) (Influenza A virus H3N2 A/Aichi/2/1968 …, UniProt P03437 17-530)
T1 construct: domain: full length; also called H3N2 A/Aichi/2/1968 Full length; full-length H3 HA protein
Test: ELISA; antigen coated 1 µg/ml; recombinant antibody
Parameters: concentration or dose not given beside the values

Row | Binder | OD 450 nm [OD 450 nm]
9 | B5 | 0.491
10 | B1 | 0.953
11 | B2 | 0.92
12 | B4 | 1.32
